From publication PMC4121272, “Two β-Galactosidases from the Human Isolate Bifidobacterium breve DSM 20213: Molecular Cloning and Expression, Biochemical Characterization and Synthesis of Galacto-Oligosaccharides” (PLoS ONE, 2014)

Experiments:
[1] = target: β-galactosidase β-gal I from Bifidobacterium breve DSM 20213 (Bifidobacterium breve DSM 20213); assay: SEC-MALS; Superdex S200 10/300 GL; 20 mM Tris pH 7.5, 150 mM NaCl, 1 mM β-mercaptoethanol, 5 mM EDTA; room temperature; 50 µL injected at 2.5 mg/mL; on-line MALLS and refractive index
[2] = target: β-galactosidase β-gal II from Bifidobacterium breve DSM 20213 (Bifidobacterium breve DSM 20213); assay: as above

| Substance | stoichiometry N [1] | stoichiometry N [2] |
| --- | --- | --- |
| β-galactosidase β-gal I from Bifidobacterium breve DSM 20213 (enzyme) | 2 | – |
| β-galactosidase β-gal II from Bifidobacterium breve DSM 20213 (enzyme) | – | 2 |
